Values quoted from earlier work in patent US20010028895A1, “Methods of treating alzheimer's disease” (priority 2000, published 2001).

How the values were obtained:
[1] = among the eight 22-mer domains of apo A-I
[2] = among the eight 22-mer domains of apo A-I; remark: listed apart in the source
[3] = among the eight 22-mer domains of apo A-I; remark: listed apart in the source
[4] = among the eight 22-mer domains of apo A-I; remark: listed apart in the source

Substance	clarifying multilamellar vesicles of DMPC [1]	partition coefficient into POPC liposomes [2]	exclusion pressure for penetration into egg yolk phosphatidylcholine monolayer [3]	reduction in the enthalpy of the gel-to-liquid crystalline phase transition of DMPC MLVs [4]
44-65: synthesized N-terminal 22-mer amphipathic domain of human apo A-I, residues 44-65 (LKLLDNWDSVTSTFSKLREQLG; UniProt P02647 68-89, looked up, fragment)	effective	highest partition coefficient	highest exclusion pressure	greatest reduction
220-241: synthesized C-terminal 22-mer amphipathic domain of human apo A-I, residues 220-241 (PVLESFKVSFLSALEEYTKKLN; UniProt P02647 244-265, looked up, fragment)	effective	highest partition coefficient	highest exclusion pressure	greatest reduction
